Tested on: Bacillus subtilis
Assay: cleaved RNA product abundance (RNA/gDNA barcode ratio) relative to median wild-type variant (ratio to wild type); higher = more accumulation of the downstream cleavage product
Details: cleavage site: cggR-gapA (positions -7 to +36 mutated)
Method in brief: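 The B. subtilis chromosome carried reporter mRNAs, truncated aprE or tetM, containing barcoded RNase Y cleavage-site windows mutagenized using oligos with a 9% error rate. After growth in LB at 37°C from OD600 0.0003 to 0.3, cleaved RNA was gel-selected, reverse transcribed and barcode-sequenced next to genomic DNA barcodes, with UMI collapsing. Each construct's RNA:gDNA barcode ratio was scaled to the median construct with the unmutated site. That scaled ratio is reported as cleaved product abundance.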

[1] = experiment (reporter, strain, medium): exp 4a: truncated aprE reporter, strain BJT201 with 2% xylose (RNase J1 expressed)
[2] = experiment (reporter, strain, medium): exp 2b: truncated aprE reporter, strain BJT200

Sequence	cleaved RNA product abundance [1]	cleaved RNA product abundance [2]	cleaved RNA product abundance (experiment (reporter, strain, medium): exp 6: tetM reporter, strain 168)
ACAGACGAAGGAGCCGCAAAGATGTTATTAAGGGATGAATAATCCCTCTATATAAATATCTCTCACTTATTTAAA	0.447		
ACAGACGAAGGAGCCGCAAAGATGTTATTAAGGGATGAATAATCCCTGAATATAAATATCTCTCACTTATTTAAA	0.628		
ACAGACGAAGGAGCCGCAAAGATGTTATTAAGGGATGAATAATCCGTCAATATAAATATCTCTCACTTATTTAAA	0.2	0.113	
ACAGACGAAGGAGCCGCAAAGATGTTATTAAGGGATGAATAATCCTTCAATATAAATATCTCTCACTTATTTAAA	0.613	0.366	
ACAGACGAAGGAGCCGCAAAGATGTTATTAAGGGATGAATAATCTCTCAATATAAATATCTCTCACTTATTTAAA	0.874		
ACAGACGAAGGAGCCGCAAAGATGTTATTAAGGGATGAATAATGCCTCAATATAAATATCTCTCACTTATTTAAA	0.186		
ACAGACGAAGGAGCCGCAAAGATGTTATTAAGGGATGAATAATTCCTCAATATAAATATCTCTCACTTATTTAAA	0.89		
ACAGACGAAGGAGCCGCAAAGATGTTATTAAGGGATGAATACTCCCTCAATATAAATATCTCTCACTTATTTAAA		0.648	
ACAGACGAAGGAGCCGCAAAGATGTTATTAAGGGATGAATATTCCCTCAATATAAATATCTCTCACTTATTTAAA	0.556	0.623	
ACAGACGAAGGAGCCGCAAAGATGTTATTAAGGGATGAATGATCCCTCAATATAAATATCTCTCACTTATTTAAA	0.51		
ACAGACGAAGGAGCCGCAAAGATGTTATTAAGGGATGCATAATCCCTCAATATAAATATCTCTCACTTATTTAAA	1.1	0.859	
ACAGACGAAGGAGCCGCAAAGATGTTATTAAGGGATTAATAATCCCTCAATATAAATATCTCTCACTTATTTAAA	0.703		
ACAGACGAAGGAGCCGCAAAGATGTTATTAAGGGGTGAATAATCCCTCAATATAAATATCTCTCACTTATTTAAA		0.656	
ACAGACGAAGGAGCCGCAAAGATGTTATTAAGGGTTGAATAATCCCTCAATATAAATATCTCTCACTTATTTAAA		0.251	
ACAGACGAAGGAGCCGCAAAGATGTTATTAAGGTATGAATAATCCCTCAATATAAATATCTCTCACTTATTTAAA	0.161		
ACAGACGAAGGAGCCGCAAAGATGTTATTAAGTGATGAATAATCCCTCAATATAAATATCTCTCACTTATTTAAA	0.11	0.1	
ACAGACGAAGGAGCCGCAAAGATGTTATTAATGGATGAATAATCCCTCAATATAAATATCTCTCACTTATTTAAA	0.135	0.131	
ACAGACGAAGGAGCCGCAAAGATGTTATTACGGGATGAATAATCCCTCAATATAAATATCTCTCACTTATTTAAA	0.401	0.369	
ACAGACGAAGGAGCCGCAAAGATGTTATTATGGGATGAATAATCCCTCAATATAAATATCTCTCACTTATTTAAA	0.343		
ACAGACGAAGGAGCCGCAAAGATTTTATTAAGGGATGAATAATCCCTCAATATAAATATCTCTCACTTATTTAAA	0.974	1.07	
ACAGACGAAGGAGCCGCAAAGCAATTATTAAGGGATGAATAATCCCTCAATATAAATATCTCTCACTTATTTAAA	0.718		
ACAGACGAAGGAGCCGCAAAGCAGTTAATAAGGGATGAATAATCCCTCAATATAAATATCTCTCACTTATTTAAA	0.298		
ACAGACGAAGGAGCCGCAAAGCAGTTATTAAAGGATGAATAATCCCTCAATATAAATATCTCTCACTTATTTAAA		0.136	
ACAGACGAAGGAGCCGCAAAGCAGTTATTAAGGAATGAATAATCCCTCAATATAAATATCTCTCACTTATTTAAA	0.0974		

Sequence	cleaved RNA product abundance [1]	cleaved RNA product abundance [2]	cleaved RNA product abundance (experiment (reporter, strain, medium): exp 6: tetM reporter, strain 168)
ACAGACGAAGGAGCCGCAAAGCAGTTATTAAGGGAAGAATAATCCCTCAATATAAATATCTCTCACTTATTTAAA	0.561		
ACAGACGAAGGAGCCGCAAAGCAGTTATTAAGGGATAAATAATCCCTCAATATAAATATCTCTCACTTATTTAAA	0.625		
ACAGACGAAGGAGCCGCAAAGCAGTTATTAAGGGATGAAAAATCCCTCAATATAAATATCTCTCACTTATTTAAA	0.687		
ACAGACGAAGGAGCCGCAAAGCAGTTATTAAGGGATGAATAACCCCTCAATATAAATATCTCTCACTTATTTAAA	0.275		
ACAGACGAAGGAGCCGCAAAGCAGTTATTAAGGGATGAATAATCCATCAATATAAATATCTCTCACTTATTTAAA	0.172		
ACAGACGAAGGAGCCGCAAAGCAGTTATTAAGGGATGAATAATCCCTAAATATAAATATCTCTCACTTATTTAAA	0.591		
ACAGACGAAGGAGCCGCAAAGCAGTTATTAAGGGATGAATAATCCCTCAAAATAAATATCTCTCACTTATTTAAA	0.468		
ACAGACGAAGGAGCCGCAAAGCAGTTATTAAGGGATGAATAATCCCTCAACATAAATATCTCTCACTTATTTAAA	0.118		
ACAGACGAAGGAGCCGCAAAGCAGTTATTAAGGGATGAATAATCCCTCAATATAAATATCTCTCACTTATTTAAA	0.958	0.905	0.944
ACAGACGAAGGAGCCGCAAAGCAGTTATTAAGGGATGAATAATCCCTCAATATATATATCTCTCACTTATTTAAA	0.687		
ACAGACGAAGGAGCCGCAAAGCAGTTATTAAGGGATGAATAATCCTTCAATATAAATATCTCTCACTTATTTAAA	0.526		
ACAGACGAAGGAGCCGCAAAGCAGTTATTAAGGGATGAATAATCGCTCAATATAAATATCTCTCACTTATTTAAA		0.083	
ACAGACGAAGGAGCCGCAAAGCAGTTATTAAGGGATGAATATTCCCTCAATATAAATATCTCTCACTTATTTAAA	0.898	0.832	
ACAGACGAAGGAGCCGCAAAGCAGTTATTAAGGGATGAGTAATCCCTCAATATAAATATCTCTCACTTATTTAAA	0.658		
ACAGACGAAGGAGCCGCAAAGCAGTTATTAAGGGATGCATAATCCCTCAATATAAATATCTCTCACTTATTTAAA		0.0725	
ACAGACGAAGGAGCCGCAAAGCAGTTATTAAGGTATGAATAATCCCTCAATATAAATATCTCTCACTTATTTAAA	0.0937		
ACAGACGAAGGAGCCGCAAAGCAGTTATTAAGTGATGAATAATCCCTCAATATAAATATCTCTCACTTATTTAAA	0.0809		
ACAGACGAAGGAGCCGCAAAGCAGTTATTAATGGATGAATAATCCCTCAATATAAATATCTCTCACTTATTTAAA	0.171		
ACAGACGAAGGAGCCGCAAAGCATTTATTAAGGGATGAATAATCCCTCAATATAAATATCTCTCACTTATTTAAA	0.256		
ACAGACGAAGGAGCCGCAAAGGAATTATTAAGGGATGAATAATCCCTCAATATAAATATCTCTCACTTATTTAAA	0.671		
ACAGACGAAGGAGCCGCAAAGGACTTATTAAGGGATGAATAATCCCTCAATATAAATATCTCTCACTTATTTAAA	0.173		
ACAGACGAAGGAGCCGCAAAGGAGCTATTAAGGGATGAATAATCCCTCAATATAAATATCTCTCACTTATTTAAA		0.502	
ACAGACGAAGGAGCCGCAAAGGAGTTAATAAGGGATGAATAATCCCTCAATATAAATATCTCTCACTTATTTAAA	0.436	0.34	
